We go through six molecules from US20180217151A1 (MILTENYI BIOTEC, published 2018).

Assay in all cases: SPR (Biacore), recombinant antigen (extracellular domain) immobilized by amine coupling, Fab as analyte, 1:1 binding mass transfer model
Assay [1] has as its target recombinant CD3 antigen ( (the Fab labels human PBMCs)). Here is the method:
(§1) FIGS. 7A and 7B show surface plasmon resonance sensorgrams of anti-CD25 rFabs using immobilized recombinant CD25 antigen. At t 110 sec, different concentrations of Fab were injected for 180 sec. At t 290 sec, the dissociation phase started.
(§2) The Fab variants of example 1 and 4 were analyzed by surface plasmon resonance spectroscopy (Biacore™). Therefore, the specific recombinant antigen (extracellular domain, expressed in mammalian cells) for a Fab was immobilized on a CMS chip by standard amine coupling. The Fab variants were used as analytes in HBS-EP buffer (0.01 M HEPES pH 7.4, 0.15 M NaCl, 3 mM EDTA, 0.005% v/v Surfactant P20) in a concentration of up to 2 μM Fab. Evaluation was conducted with the Biacore™ X-100 Evaluation Software using an 1:1 binding mass transfer model.

Assay [2] has as its target T1, recombinant CD45RA antigen ( (the Fab labels human PBMCs)).
T1 construct: extracellular domain; also called CD45RA, recombinant extracellular domain
How it is done: as §1, §2

The target in assay [3] is T2, recombinant CD25 antigen ( (the Fab labels human PBMCs), UniProt P01589).
T2 construct: extracellular domain; also called immobilized recombinant CD25 antigen; CD25, recombinant extracellular domain
T2 sequence (antigen, looked up): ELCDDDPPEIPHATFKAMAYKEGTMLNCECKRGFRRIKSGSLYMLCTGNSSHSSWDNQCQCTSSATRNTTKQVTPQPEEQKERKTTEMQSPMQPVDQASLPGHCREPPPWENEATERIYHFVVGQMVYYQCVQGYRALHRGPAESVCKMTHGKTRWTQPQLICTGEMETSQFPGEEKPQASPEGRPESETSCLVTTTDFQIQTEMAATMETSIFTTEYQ
Here is the method:
as §1, §2

Assay [4] concerns the target T3, recombinant CD4 antigen ( (the Fab labels human PBMCs), UniProt P01730).
T3 construct: extracellular domain; also called CD4, recombinant extracellular domain
How it is done:
as §1, §2

In assay [5] the target is T4, recombinant CD28 antigen ( (the Fab labels human PBMCs), UniProt P10747).
T4 construct: extracellular domain; also called CD28, recombinant extracellular domain
Here is the method:
as §1, §2

Sequence of recombinant CD3 antigen ( (the Fab labels human PBMCs)) (chain, as listed by the source): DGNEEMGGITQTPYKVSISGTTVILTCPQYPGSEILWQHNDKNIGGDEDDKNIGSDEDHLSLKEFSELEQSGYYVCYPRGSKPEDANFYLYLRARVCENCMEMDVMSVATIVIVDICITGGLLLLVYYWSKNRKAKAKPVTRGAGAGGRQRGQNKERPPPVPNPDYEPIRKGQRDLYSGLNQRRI

B1: OKT3-hum rFab (Fab, V domains shown)
VH: QVQLVQSGGGVVQPGRSLRLSCKASGYTFTRYTMHWVRQAPGKGLEWIGYINPSRGYTNYNQKVKDRFTISRDNSKNTAFLQMDSLRPEDTGVYFCARYYDDHYSLDYWGQGTPVTVSS
VL: DIQMTQSPSSLSASVGDRVTITCSASSSVSYMNWYQQTPGKAPKRWIYDTSKLASGVPSRFSGSGSGTDYTFTISSLQPEDIATYYCQQWSSNPFTFGQGTKLQITR
modifications: For the cell assay: biotin (thiol-reactive reagent) on cysteine(s) of the reduced disulfide bridge, position not stated
notes: Recombinant Fab from E. coli; purified by IMAC; also called humanized variant of anti-CD3 clone OKT3; anti-CD3 rFab
Regarding B1, in assay [1], the Kd is 46 nM, the koff turned out to be 0.19 s⁻¹ and the kon was determined as 4.1e+06 M⁻¹ s⁻¹.

B2: MEM56-LAV rFab (Fab, V domains shown)
VH: QVQLQQSGAELAKPGASVKMSCKASGYNFTRYWMHWIKQRPGQGLEWIGYINPNTGHTEYNQKFKDKATLTADKSSSTAYMQLSSLTSEDSAVYYCATYYYGSRRDAGQGTTLTVSS
VL: QIVLTQSPAIMSASLGERVTMTCTTSSSVSSSYLHWYQQKPGSSPKLWIYSTSNLASGVPARFSGSGSGTSYSLTISTVEAEDAATYYCHQYHRSPLTFGAGTKLELKR
modifications: In the cell assay the Fab was biotinylated with a thiol-reactive reagent (e.g. maleimide-PEO2-biotin) on cysteines of the reduced disulfide bridge; positions not stated.
notes: Recombinant Fab from E. coli; heavy chain optionally followed by a poly-histidine tag; Biotinylated for the cell assay; also called mutated variant of anti-CD45RA clone MEM56
As to B2, in assay [2], the Kd came to 1300 nM, the koff was 0.11 s⁻¹ and the kon was determined as 88000 M⁻¹ s⁻¹.

B3: RFT5 rFab (Fab, V domains shown)
VH: EVQLQQSGTVLARPGASVKMSCKASGYSFTRYWMHWIKQRPGQGLEWIGAIYPGNSDTSYNQKFEGKAKLTAVTSASTAYMELSSLTHEDSAVYYCSRDYGYYFDFWGQGTTLTVSS
VL: QIVLTQSPAIMSASPGEKVTMTCSASSSISYMQWYQQKPGTSPKRWIYDTSKLASGVPARFSGSGSGTSYSLTISSMEAEDAATYYCHQRSSYTFGGGTKLEIKR
modifications: For the cell assay: biotin (thiol-reactive reagent) on cysteine(s) of the reduced disulfide bridge, position not stated
notes: Recombinant Fab from E. coli; heavy chain optionally followed by a poly-histidine tag; Biotinylated for the cell assay; also called anti-CD25 rFab (based on clone RFT5)
As to B3, in assay [3], the Kd stood at 0.2 nM, the off-rate constant (koff) was determined as 0.00038 s⁻¹ and the kon turned out to be 1.9e+06 M⁻¹ s⁻¹.

B4: RFT5-LAV rFab (Fab, V domains shown)
VH: EVQLQQSGTVLARPGASVKMSCKASGYSFTRYWMAWIKQRPGQGLEWIGAIYPGNSDTSYNQKFEGKAKLTAVTSASTAYMELSSLTHEDSAVYYCSRDYGYYFDFAGQGTTLTVSS
VL: QIVLTQSPAIMSASPGEKVTMTCSASSSISYMQWYQQKPGTSPKRWIYDTSKLASGVPARFSGSGSGTSYSLTISSMEAEDAATYYCHQRSSYTFGGGTKLEIKR
modifications: For the cell assay: biotin (thiol-reactive reagent) on cysteine(s) of the reduced disulfide bridge, position not stated
notes: Recombinant Fab from E. coli; heavy chain optionally followed by a poly-histidine tag; Biotinylated for the cell assay; also called mutated variant of anti-CD25 clone RFT5
As for B4, in assay [3], the Kd was determined as 21 nM, the koff is 0.21 s⁻¹ and the kon was 1e+07 M⁻¹ s⁻¹.

B5: 13B8.2-LAV rFab (Fab, V domains shown)
VH: QVQLKQSGPGLVQPSQSLSITCTVSGFSLTTFGVHWVRQSPGKGLEWLGVIWASGITDYNVPFMSRLSITKDNSKSQVFFKLNSLQPDDTAIYYCAKNDPGTGFAYWGQGTLVTVSA
VL: DIQMTQSPASLSASVGETVTFTCRASENIYSYLAWYQQKQGKSPQLLVHDAKTLAEGVPSRFSGGGSGTQFSLKINTLQPEDFGTYYCQHAYGNPPTFGGGTKLEIKR
modifications: For the cell assay: biotin (thiol-reactive reagent) on cysteine(s) of the reduced disulfide bridge, position not stated
notes: Recombinant Fab from E. coli; heavy chain optionally followed by a poly-histidine tag; Biotinylated for the cell assay; also called mutated variant of anti-CD4 clone 13B8.2
As for B5, in assay [4], the Kd was 15000 nM, the koff was 0.006 s⁻¹ and the kon amounted to 410 M⁻¹ s⁻¹.

B6: 15E8-hum rFab (Fab, V domains shown)
VH: QVQLQESGPGLVKPSETLSLTCTVSGFSLTSYGVHWIRQPPGKGLEWLGVIWAGGSTNYNSSLKSRVTISKDTSKNQVSLKLSSVTAADTAVYYCARDKRAPGKLYYGYPDYWGQGTTLTVSS
VL: DIVMTQSPDSLAVSLGERATINCRASESVEYYVTSLMQWYQQKPGQPPKLLIYAASNVESGVPARFSGSGSGTDFTLTISPLQAEDVAVYYCQQTRKVPSTFGGGTKLEIKR
modifications: For the cell assay: biotin (thiol-reactive reagent) on cysteine(s) of the reduced disulfide bridge, position not stated
notes: Recombinant Fab from E. coli; heavy chain optionally followed by a poly-histidine tag; Biotinylated for the cell assay; also called humanized variant of anti-CD28 clone 15E8
Take B6: in assay [5], the Kd amounted to 21 nM, the koff stood at 0.089 s⁻¹ and the kon came to 4.3e+06 M⁻¹ s⁻¹.
